The target of test [1] is 小鼠CTLA4/CD152蛋白(His标签) (mouse) (UniProt P09793). As to the kind of experiment: ELISA, mouse CTLA-4 coated, anti-human Fc HRP detection.
For test [2], the target named is T1, Human CTLA-4/CD152 Protein (His Tag), Biotinylated (human, UniProt P16410 36-161, biotinylated (site not stated)).
T1 construct: Bought recombinant protein; also called 人CTLA-4蛋白; 抗原; not shown: His tag
T1 sequence (looked up): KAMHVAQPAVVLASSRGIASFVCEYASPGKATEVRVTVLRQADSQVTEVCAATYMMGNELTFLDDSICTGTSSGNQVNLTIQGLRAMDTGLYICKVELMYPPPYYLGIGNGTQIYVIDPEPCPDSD
As to the kind of experiment: multi-cycle kinetics on OCTET, antibody captured on Protein A, CTLA-4 diluted 2-fold from 33 nM over 7 points.

Our source for the antibody concentration and Kd values is patent CN108003238A (VELOX PHARMACEUTICALS INC, dated 2018).

Chain of UniProt P09793 (P09793 36-161 limits assumed): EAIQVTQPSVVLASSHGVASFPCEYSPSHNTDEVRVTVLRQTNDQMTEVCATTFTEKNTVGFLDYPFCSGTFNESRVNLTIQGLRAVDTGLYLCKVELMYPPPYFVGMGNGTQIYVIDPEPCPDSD

B1: IgG1-6E2-CTLA-4 (antibody, V domains shown)
VH: QVQLVQSGAEVKKPGSSVKVSCKASGGTFSSYGISWVRQAPGQGLEWMGGIIPIFETSESAQKFQGRVTFTADKSSSTGYMELSSLRSEDTAIYYCARDPLHRSSSGTYYHYFMDVWGQGTMVTVSS
VL: QAVLTQPSSLSASPGASVSLTCTLRSGINVGAYRIYWYQQKPGSPPQFLLRYKSDSDKEQGRGVPSRFSGSKDASANAGILLISGLQSEDEADYYCMIWHNNAVFFGGGTKLTVLG
notes: also called 抗CTLA-4全人源单克隆抗体
B1 registered an antibody concentration at which binding is still not saturated in test [1] of over 8 ng/µL. The molecule further had a dissociation constant (Kd) in test [2] of 1 pM.

The term Kd denotes the equilibrium constant for the complex coming apart. The low end stands for a tighter complex, the high end for a looser complex.
